From publication PMC9108660 come the findings set out here.

As usually defined, the Kd is the equilibrium constant for the complex coming apart. Higher therefore signals a looser complex. In general, pKd refers to the Kd on a negative log10 scale, so that one unit is a factor of ten. High values mean a small Kd, low ones a large Kd.

pKd: −log10 of the molar value.

Data set [1] addresses dCas9 (catalytically deactivated Cas9) (UniProt Q99ZW2). The experiment in a line: magnetic bead pull-down, qPCR. Particulars: 2 mM Mg2+; SPR: 2 mM MgCl2, 37 °C, 30 min, 2 µL DNA (up to 1000 ng/µL), dRNP on graphdiyne chip, rinse 2 mM MgCl2; bead assay: 2 mM MgCl2, 37 °C, 1 h; pH not stated. Background: Quantitative PCR measures a nucleic acid by following its amplification.
For data set [2] the target is unchanged. The experiment in a line: SPR. To be noted: SPR: 2 mM MgCl2, 37 °C, 30 min, 2 µL DNA (up to 1000 ng/µL), dRNP on graphdiyne chip, rinse 2 mM MgCl2, bead assay: 2 mM MgCl2, 37 °C, 1 h, pH not stated.

UniProt Q99ZW2, sequence (Q99ZW2 whole entry): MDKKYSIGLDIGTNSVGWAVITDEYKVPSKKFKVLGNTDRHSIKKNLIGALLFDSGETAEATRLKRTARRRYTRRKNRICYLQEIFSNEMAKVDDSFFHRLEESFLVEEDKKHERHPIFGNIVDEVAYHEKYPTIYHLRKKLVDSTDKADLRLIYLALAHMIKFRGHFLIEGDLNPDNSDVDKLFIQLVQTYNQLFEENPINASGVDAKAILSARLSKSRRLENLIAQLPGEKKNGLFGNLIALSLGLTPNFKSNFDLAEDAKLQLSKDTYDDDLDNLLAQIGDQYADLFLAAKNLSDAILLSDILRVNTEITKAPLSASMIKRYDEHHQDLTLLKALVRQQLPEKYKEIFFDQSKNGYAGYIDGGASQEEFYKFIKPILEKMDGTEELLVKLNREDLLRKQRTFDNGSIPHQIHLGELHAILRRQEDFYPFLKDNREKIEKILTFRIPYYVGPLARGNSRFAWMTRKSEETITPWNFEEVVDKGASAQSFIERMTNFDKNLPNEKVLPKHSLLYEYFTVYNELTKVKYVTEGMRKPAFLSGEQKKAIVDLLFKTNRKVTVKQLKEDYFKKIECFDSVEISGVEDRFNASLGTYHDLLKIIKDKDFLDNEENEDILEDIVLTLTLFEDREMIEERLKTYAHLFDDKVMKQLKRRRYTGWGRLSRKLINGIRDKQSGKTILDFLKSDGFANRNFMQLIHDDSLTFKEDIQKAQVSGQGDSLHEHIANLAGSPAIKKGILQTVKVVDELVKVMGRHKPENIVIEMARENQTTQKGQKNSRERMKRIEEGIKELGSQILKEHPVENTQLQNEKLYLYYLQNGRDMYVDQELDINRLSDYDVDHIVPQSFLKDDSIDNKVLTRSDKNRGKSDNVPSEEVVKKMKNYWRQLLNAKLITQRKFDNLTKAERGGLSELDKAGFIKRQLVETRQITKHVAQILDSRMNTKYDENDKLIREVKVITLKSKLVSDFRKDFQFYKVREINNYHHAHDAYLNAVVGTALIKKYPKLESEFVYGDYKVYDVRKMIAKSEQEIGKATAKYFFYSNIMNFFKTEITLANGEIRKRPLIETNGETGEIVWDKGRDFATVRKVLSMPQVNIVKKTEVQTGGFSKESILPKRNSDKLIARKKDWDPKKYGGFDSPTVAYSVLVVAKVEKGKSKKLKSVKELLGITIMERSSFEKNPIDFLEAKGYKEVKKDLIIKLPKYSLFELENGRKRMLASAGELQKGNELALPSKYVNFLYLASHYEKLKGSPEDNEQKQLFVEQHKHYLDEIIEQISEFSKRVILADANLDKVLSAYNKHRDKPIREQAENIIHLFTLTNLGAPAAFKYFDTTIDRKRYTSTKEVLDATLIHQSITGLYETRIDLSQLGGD

In turn, “GGGUGUAGUAGCCGCCGUCGCGCGUUUUAGAGCUAGAAAUAGCAAGUUAAAAUAAGGCUAGU [sgRNA-GFP-Pos2 + pCDH-GFP-2k amplicon]” registered a binding signal in data set [1] of 99.4 % captured.
In the case of “GGGUGCCUGCAGGUCGCACCUAGGUUUUAGAGCUAGAAAUAGCAAGUUAAAAUAAGGCUAGU [sgRNA-Mut1 + pUC19-Mut1-0.8k amplicon]”, the binding signal in data set [1] is 69.8 % captured.
Same read-out and setting: for “GGGUGCCUGCAGGUCGCACCUAGGUUUUAGAGCUAGAAAUAGCAAGUUAAAAUAAGGCUAGU [sgRNA-Mut1 + pUC19-Mut1-0.3k amplicon]” the value was 89.2 % captured.
Turning to “GGGUGCCUGCAGCUCCACACUAGGUUUUAGAGCUAGAAAUAGCAAGUUAAAAUAAGGCUAGU [sgRNA-Mut3 + pUC19-Mut3-0.8k amplicon]”, the Kd in data set [2] is 7.61 10^-8 M. Further, the binding signal in data set [1] came out at 99.8 % captured.
In turn, “GGGUGCCUGCAGCUCCACACUAGGUUUUAGAGCUAGAAAUAGCAAGUUAAAAUAAGGCUAGU [sgRNA-Mut3 + pUC19-Mut3-0.3k amplicon]” yielded a binding signal in data set [1] of 99.8 % captured.
In data set [2] (2 mM Mg2+, ka 0.11e5 M-1s-1, kd 6.5e-3 s-1), “GGGGUUCGCCUUCCGCCGCGUGGGUUUUAGAGCUAGAAAUAGCAAGUUAAAAUAAGGCUAGU [sgRNA-GFP-Pos3 + pCDH-GFP-5k amplicon]” gave a negative-log Kd (pKd) of 6.23.
For the sequence “GGGUGUAGUAGCCGCCGUCGCGCGUUUUAGAGCUAGAAAUAGCAAGUUAAAAUAAGGCUAGU [sgRNA-GFP-Pos2 + pCDH-GFP-5k amplicon]”, the Kd in data set [2] was 1.38 10^-8 M. The binding signal in data set [1] was 99.7 % captured.
